According to article PMC3131266:

Experiments:
[1] = target: glycocalicin, the carbohydrate-rich extracellular portion of the platelet membrane glycoprotein GPIbα (human) (UniProt P07359); test: binding of whole bacteria to immobilised protein in microtiter wells; as a1, bacteria diluted into DPBS containing 44 mM α-2,3-sialyl (1-thioethyl)galactose, pH 7.5, compared with DPBS alone
[2] = target: glycocalicin (Homo sapiens) (UniProt P07359); conditions: cited from earlier work
Sequence of glycocalicin (Homo sapiens) (P07359 17-506): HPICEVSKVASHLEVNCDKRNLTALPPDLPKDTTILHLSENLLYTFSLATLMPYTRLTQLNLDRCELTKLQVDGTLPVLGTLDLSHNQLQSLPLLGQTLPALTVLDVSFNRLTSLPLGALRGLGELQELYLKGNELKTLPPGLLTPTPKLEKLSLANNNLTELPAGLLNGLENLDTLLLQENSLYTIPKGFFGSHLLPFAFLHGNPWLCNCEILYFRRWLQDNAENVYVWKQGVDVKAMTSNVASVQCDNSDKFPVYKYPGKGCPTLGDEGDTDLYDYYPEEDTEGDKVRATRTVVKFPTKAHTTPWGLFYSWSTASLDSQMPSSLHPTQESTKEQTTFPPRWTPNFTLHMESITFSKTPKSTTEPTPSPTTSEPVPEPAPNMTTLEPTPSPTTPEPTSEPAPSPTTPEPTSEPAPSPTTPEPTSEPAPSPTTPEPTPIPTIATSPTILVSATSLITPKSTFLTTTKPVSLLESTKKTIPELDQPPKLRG

Sequence of glycocalicin, the carbohydrate-rich extracellular portion of the platelet membrane glycoprotein GPIbα (human) (P07359 17-531): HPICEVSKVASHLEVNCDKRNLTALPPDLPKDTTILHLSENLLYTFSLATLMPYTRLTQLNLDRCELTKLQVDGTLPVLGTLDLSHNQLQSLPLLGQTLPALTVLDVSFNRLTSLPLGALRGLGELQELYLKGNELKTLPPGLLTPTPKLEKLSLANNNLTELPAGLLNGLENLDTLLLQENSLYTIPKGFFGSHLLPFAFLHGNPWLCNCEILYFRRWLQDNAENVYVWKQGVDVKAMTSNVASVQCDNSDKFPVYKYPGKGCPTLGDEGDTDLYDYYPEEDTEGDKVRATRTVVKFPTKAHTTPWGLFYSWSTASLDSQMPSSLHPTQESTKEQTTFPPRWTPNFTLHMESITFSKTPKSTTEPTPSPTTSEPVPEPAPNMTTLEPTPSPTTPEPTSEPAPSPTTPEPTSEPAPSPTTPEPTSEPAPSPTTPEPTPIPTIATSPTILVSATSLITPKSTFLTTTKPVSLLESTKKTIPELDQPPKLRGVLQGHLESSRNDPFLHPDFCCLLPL
Sequence of GspB of Streptococcus gordonii strain M99, wild type, on the bacterial cell surface, Q939N5 86-3041 (natural protein; carries sialyl-T antigen carbohydrates (sites not stated)) (Q939N5 86-3041): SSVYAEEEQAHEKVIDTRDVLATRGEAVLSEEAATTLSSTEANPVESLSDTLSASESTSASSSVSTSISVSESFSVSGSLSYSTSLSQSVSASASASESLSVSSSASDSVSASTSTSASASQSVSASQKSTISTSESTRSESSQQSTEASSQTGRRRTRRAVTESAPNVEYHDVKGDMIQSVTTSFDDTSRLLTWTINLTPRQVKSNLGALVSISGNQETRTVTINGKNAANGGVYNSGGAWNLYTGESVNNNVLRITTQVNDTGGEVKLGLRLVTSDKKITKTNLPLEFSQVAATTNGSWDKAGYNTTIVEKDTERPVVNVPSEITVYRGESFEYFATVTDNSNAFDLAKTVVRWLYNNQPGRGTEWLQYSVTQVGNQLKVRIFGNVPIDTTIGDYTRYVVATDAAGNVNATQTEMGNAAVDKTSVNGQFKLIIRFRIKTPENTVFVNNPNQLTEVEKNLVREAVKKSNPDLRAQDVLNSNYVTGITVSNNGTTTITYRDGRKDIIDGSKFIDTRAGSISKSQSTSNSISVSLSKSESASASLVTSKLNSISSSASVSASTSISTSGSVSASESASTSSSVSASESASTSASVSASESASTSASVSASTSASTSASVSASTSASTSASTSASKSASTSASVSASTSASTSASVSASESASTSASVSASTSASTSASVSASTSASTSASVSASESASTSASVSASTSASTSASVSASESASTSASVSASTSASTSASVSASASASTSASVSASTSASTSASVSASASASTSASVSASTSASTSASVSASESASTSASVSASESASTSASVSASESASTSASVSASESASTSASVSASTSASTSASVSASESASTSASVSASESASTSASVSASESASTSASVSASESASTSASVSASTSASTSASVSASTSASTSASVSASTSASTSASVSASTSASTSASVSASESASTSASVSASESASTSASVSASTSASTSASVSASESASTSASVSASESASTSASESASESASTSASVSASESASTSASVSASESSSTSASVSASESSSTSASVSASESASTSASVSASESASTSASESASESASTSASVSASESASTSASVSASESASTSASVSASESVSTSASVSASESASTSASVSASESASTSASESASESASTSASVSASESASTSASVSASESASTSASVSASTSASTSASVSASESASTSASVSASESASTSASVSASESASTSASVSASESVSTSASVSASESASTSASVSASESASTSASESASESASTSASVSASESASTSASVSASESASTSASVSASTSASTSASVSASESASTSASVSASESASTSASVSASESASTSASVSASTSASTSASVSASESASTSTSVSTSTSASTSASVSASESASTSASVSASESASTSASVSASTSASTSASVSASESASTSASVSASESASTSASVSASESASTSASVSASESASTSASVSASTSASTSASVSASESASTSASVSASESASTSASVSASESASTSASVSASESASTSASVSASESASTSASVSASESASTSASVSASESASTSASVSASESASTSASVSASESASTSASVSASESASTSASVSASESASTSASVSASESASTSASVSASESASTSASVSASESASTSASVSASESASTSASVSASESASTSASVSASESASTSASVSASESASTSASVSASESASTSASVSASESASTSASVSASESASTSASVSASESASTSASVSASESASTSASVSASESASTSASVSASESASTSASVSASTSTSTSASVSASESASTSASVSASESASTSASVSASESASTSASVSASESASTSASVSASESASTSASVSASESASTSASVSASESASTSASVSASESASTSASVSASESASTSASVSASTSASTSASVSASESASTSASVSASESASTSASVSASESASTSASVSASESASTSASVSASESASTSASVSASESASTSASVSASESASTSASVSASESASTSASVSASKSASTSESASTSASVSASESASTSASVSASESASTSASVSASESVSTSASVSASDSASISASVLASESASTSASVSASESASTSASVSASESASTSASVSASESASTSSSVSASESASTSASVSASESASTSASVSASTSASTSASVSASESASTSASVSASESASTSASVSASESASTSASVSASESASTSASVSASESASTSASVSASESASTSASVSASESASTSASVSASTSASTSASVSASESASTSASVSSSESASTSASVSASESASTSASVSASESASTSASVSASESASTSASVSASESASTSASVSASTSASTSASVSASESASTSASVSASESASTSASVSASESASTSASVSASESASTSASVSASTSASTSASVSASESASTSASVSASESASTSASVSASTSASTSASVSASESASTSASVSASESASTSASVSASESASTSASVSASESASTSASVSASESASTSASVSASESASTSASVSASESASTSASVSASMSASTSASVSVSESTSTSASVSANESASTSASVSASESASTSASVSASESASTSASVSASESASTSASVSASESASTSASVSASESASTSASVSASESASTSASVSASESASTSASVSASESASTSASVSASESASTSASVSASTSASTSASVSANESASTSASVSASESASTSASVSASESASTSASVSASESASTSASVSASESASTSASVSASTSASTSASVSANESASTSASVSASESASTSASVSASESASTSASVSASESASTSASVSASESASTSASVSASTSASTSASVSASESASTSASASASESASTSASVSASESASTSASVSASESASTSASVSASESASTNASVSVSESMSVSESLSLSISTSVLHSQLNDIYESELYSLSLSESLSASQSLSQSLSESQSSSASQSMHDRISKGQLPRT

Row | Substance | percent reduction of binding by 44 mM α-2,3-sialyl (1-thioethyl)galactose [1] [%] | Kd [2] [nM]
1 | GspB of Streptococcus gordonii strain M99, wild type, on the bacterial cell surface, Q939N5 86-3041 (natural protein; carries sialyl-T antigen carbohydrates (sites not stated)) | 90 | –
2 | GspB (from UniProt Q939N5) | – | 23.8
